Results on 79 sequences are retold here after the supplement of paper PMC10126150.

± gives the standard deviation of the averaged measurements.
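Note: ATP exposure 15 min at 22 °C before imaging.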

The data set deals with ATP. Put plainly: switch fluorescence ratio, 500 uM ATP over buffer (Cy3 cluster intensity, sum of 5 cycles each) (fold (ratio)); higher = stronger signal-on switching upon ATP binding; sequences stand for … in TCGTCGGCAGCGTCAGATGTGTATAAGAGACAGTTTTTTTTTTTTTTTTTTTTTTTTT…TC. Particulars: aptamer strand: ATP DNA aptamer (quencher-CACCTGGGGGAGTATTGCGGAGGAAGG + anchor), 100 nM annealed; ATP concentration: 500 uM. The procedure, abridged: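 Clusters carrying Cy3-labelled switching strands on a modified Illumina MiSeq flow-cell were annealed to 100 nM quencher-labelled ATP aptamer and imaged in selection buffer. They were imaged again after 15 min with 500 uM ATP at 22 °C, over five buffer/ATP cycles with NaOH stripping and re-annealing in between. For each cluster, the fluorescence ratio is the summed Cy3 intensity of the target cycles divided by that of the buffer cycles, averaged per switch-domain sequence. Clusters outside 100-1000 RFU were left out.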
For the sequence TAACGGGCTG, the switch fluorescence ratio was 1.07 ± 0.054.

As to GCATCGCCAT, the switch fluorescence ratio was 1.02 ± 0.029. On to TGGAGGGATT, for which the switch fluorescence ratio amounted to 1.02 ± 0.013. As to CATTTGTGTT, the switch fluorescence ratio worked out at 1.02 ± 0.046.

Take AATCCAAAAG: the switch fluorescence ratio came to 1.026 ± 0.0043. As to CGAGAGGGGG, the switch fluorescence ratio was found to be 0.9723 ± 0.0065. Take TTTAATTAGG: the switch fluorescence ratio amounted to 1.03 ± 0.028. As to TCTCTGTTGA, the switch fluorescence ratio was determined as 1.01 ± 0.057. In the case of TTTCGATAGG, the switch fluorescence ratio is 0.979 ± 0.034. For CGGAAAATTA, the switch fluorescence ratio was 1.015 ± 0.0067.

For TGTTTGAAGT, the switch fluorescence ratio came to 0.989 ± 0.023.

In the case of AGGAAGGCAC, the switch fluorescence ratio was determined as 1.05 ± 0.016.

With ATGCTTCTTT, the switch fluorescence ratio worked out at 0.9854 ± 0.0053. With GCTCGGTTAG the figure was 1.01 ± 0.018; with CTAAGCGGGA, 1.05 ± 0.016; with GATTGAGTAG, 0.986 ± 0.016. As for GGTTCGTCAC, the switch fluorescence ratio came out at 1.11 ± 0.1.

For the sequence ACTTGTAGCT, the switch fluorescence ratio is 1.02 ± 0.011. In the case of TCCGTCCCCG, the switch fluorescence ratio was 1.35 ± 0.058.

On to CGGTACGGAT, for which the switch fluorescence ratio is 0.989 ± 0.043. For the sequence TCTTAGAGGG, the switch fluorescence ratio was 0.991 ± 0.017.

In the case of TCACGTTCAA, the switch fluorescence ratio amounted to 1.06 ± 0.022. With ATATTCGATT the figure was 0.999 ± 0.027. As for AGAAATTTGG, the switch fluorescence ratio is 1.01 ± 0.02.

For TTATGCATGT, the switch fluorescence ratio was determined as 1.02 ± 0.038. Consider GGGGTTTTAG, for which the switch fluorescence ratio amounted to 1.01 ± 0.018.

Turning to GCCTTAGAGT, the switch fluorescence ratio worked out at 1.03 ± 0.051.

For ATGGTGGTGG, the switch fluorescence ratio is 1.011 ± 0.0062. The result for ATACGGGTTT reads 1.024 ± 0.0097. The result for TAGTTACTTT reads 1.02 ± 0.021; that for AATTTTGAGG, 0.984 ± 0.034; that for TTTCGGCATT, 2.4 ± 1.9. As to TTTAAAACCA, the switch fluorescence ratio is 1.004 ± 0.0039.

For the sequence GGGGTAGTTA, the switch fluorescence ratio was 0.9743 ± 0.0066. TTATATCCGT: the switch fluorescence ratio amounted to 1.01 ± 0.031.

With GGGGCGCGCC, the switch fluorescence ratio was determined as 1.022 ± 0.0077. Take AGGGGTAAAT: the switch fluorescence ratio came to 1.02 ± 0.073. With TTGATTATTG the figure was 0.999 ± 0.032; with TGGATATTTA, 0.978 ± 0.012; with ATACTAGGAG, 1 ± 0.026. Consider TCTTAAAAT, for which the switch fluorescence ratio turned out to be 1.006 ± 0.0097. With TTTTGAGCAT the figure was 1.07 ± 0.12. Regarding GCGTGGGATA, the switch fluorescence ratio came to 1.03 ± 0.038.

With AAGAGGGTAT, the switch fluorescence ratio was 0.9835 ± 0.0065. The result for GGGTTAAGAT reads 0.997 ± 0.0054; that for ATCGTTCTGT, 0.966 ± 0.025. The result for GGAGGGTTAT reads 0.995 ± 0.038; that for AAAGTCTAC, 1 ± 0.017.

As for ATAAGGCTCG, the switch fluorescence ratio is 0.966 ± 0.011. On to GGTAGAGGGG, for which the switch fluorescence ratio came to 0.9628 ± 0.0078. In the case of AAATATTTAT, the switch fluorescence ratio stood at 0.971 ± 0.018. The result for ATGTGCTGTT reads 0.99802 ± 8.7e-05; that for TAGTTTTTCC, 1.03 ± 0.037.

As to GATCCGAGAC, the switch fluorescence ratio came out at 1.516 ± 0.0088. Regarding GGTTTATATA, the switch fluorescence ratio amounted to 1.006 ± 0.0018. For TTTGGTGTGC, the switch fluorescence ratio was determined as 1.01 ± 0.022.

As for CGTAAAATAC, the switch fluorescence ratio came to 2.85 ± 0.056. For GGTACTATT, the switch fluorescence ratio came to 0.991 ± 0.04.

On to GTTTTGGAGG, for which the switch fluorescence ratio turned out to be 0.9691 ± 0.0043. On to TCGGGATCCT, for which the switch fluorescence ratio was 1.35 ± 0.51.

For the sequence TGGGGAGAAA, the switch fluorescence ratio worked out at 1 ± 0.031. The result for GGGGGCATAT reads 1.02 ± 0.026.

For the sequence GTGGGAGGGG, the switch fluorescence ratio amounted to 1 ± 0.015. For the sequence GGGTGGTAAG, the switch fluorescence ratio stood at 0.997 ± 0.051. The result for CAAATTGGAA reads 0.961 ± 0.043; that for CCTTTATGGT, 0.983 ± 0.011. For TGCATACGGC, the switch fluorescence ratio was found to be 1.04 ± 0.07. In the case of GGAGTTGTGA, the switch fluorescence ratio was 0.995 ± 0.021. For the sequence TTGGGGGTGC, the switch fluorescence ratio turned out to be 0.997 ± 0.052. With AGGGGAAGCC the figure was 1.02 ± 0.066; with TTGAGGGTGC, 1.01 ± 0.022; with CTGGATTGGG, 0.98 ± 0.028. TTAAAAAGGA: the switch fluorescence ratio turned out to be 0.986 ± 0.016. On to ATCAATGTCT, for which the switch fluorescence ratio was 0.994 ± 0.005. As for ACACTAGGTT, the switch fluorescence ratio worked out at 1.06 ± 0.051. As to GAGGTGCTGA, the switch fluorescence ratio was 1 ± 0.061. With TTTCGAATTT, the switch fluorescence ratio stood at 1.02 ± 0.04.

In the case of ATTTAACGGG, the switch fluorescence ratio came out at 1.006 ± 0.0056. ATATTGGAGA: the switch fluorescence ratio was determined as 1.13 ± 0.25.
